PMC10837206, “R-Spondin 2 governs Xenopus left-right body axis formation by establishing an FGF signaling gradient” (Nature Communications, 2024)

Assays:
[1] = target: T1, recombinant human FGFR4 Fc Chimera (human, UniProt P22455 22-369); assay: in vitro competitive binding assay (solid phase, bound AP activity); as a8; the peptide (100 uM) against coated FGFR4 Fc Chimera; settings: both partners purified
T1 construct: Fibroblast Growth Factor receptor 4 (FGFR4), human, extracellular domain; also called FGFR4^ECD; extracellular domain (ECD) of FGFR4; source: bought: R&D systems 685-FR and BioLegend 752502
T1 sequence (looked up): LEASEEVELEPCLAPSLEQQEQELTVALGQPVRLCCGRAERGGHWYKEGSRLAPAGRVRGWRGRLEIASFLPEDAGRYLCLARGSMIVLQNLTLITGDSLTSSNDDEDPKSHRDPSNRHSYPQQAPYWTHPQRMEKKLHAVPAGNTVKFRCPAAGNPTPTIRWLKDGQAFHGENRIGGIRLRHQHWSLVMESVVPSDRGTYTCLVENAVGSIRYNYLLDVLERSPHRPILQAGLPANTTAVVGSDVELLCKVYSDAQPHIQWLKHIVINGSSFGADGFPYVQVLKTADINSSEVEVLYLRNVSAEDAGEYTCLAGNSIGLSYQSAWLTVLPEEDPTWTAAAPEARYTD

[2] = target: T1, recombinant human FGFR4 Fc Chimera; assay: in vitro binding assay (solid phase, bound AP activity); titration of RSPO2-AP on coated FGFR4 Fc Chimera (R&D systems 685-FR); Scatchard analysis; settings: one partner purified

B1: TK peptide (10-mer derived from the human RSPO2 TSP1 domain) (peptide)
peptide: TRQIVKKPVK
notes: stretch of the TSP1 domain of human R-Spondin 2 (RSPO2)
binding result [1]: binds

B2: KC peptide (10-mer derived from the human RSPO2 TSP1 domain) (peptide)
peptide: KKPVKDTILC
notes: as for B1
binding result [1]: binds

B3: human RSPO2-AP (alkaline-phosphatase-tagged R-Spondin 2 fusion protein) (ligand, UniProt Q6UXX9 22-243, looked up)
chain: QGNRWRRSKRASYVSNPICKGCLSCSKDNGCSRCQQKLFFFLRREGMRQYGECLHSCPSGYYGHRAPDMNRCARCRIENCDSCFSKDFCTKCKVGFYLHRGRCFDECPDGFAPLEETMECVEGCEVGHWSEWGTCSRNNRTCGFKWGLETRTRQIVKKPVKDTILCPTIAESRRCKMTMRHCPGGKRTPKAKEKRNKKKKRKLIERAQEQHSVFLATDRANQ
notes: R-Spondin 2 (RSPO2), human; also called R2; source: HEK293T, transfected, conditioned medium
Kd [2]: 1.5 nM
